Measured values: patent US20250042992A1 (University of California, published 2025)

Legend:
[1] = target: human DLK1 short form (isoform 2, DLK1-MB) fused to mGFP, expressed on HEK293T cells (human) (UniProt P80370); test: indirect flow cytometry, 1° control antibody at 4ug/ml detected with an AF-647 secondary antibody, cells 832-HEK293T DLK1 Iso2-mGFP mass pop (short form); same antibody on HEK293T parental 3,130.00
[2] = target: human-mouse chimeric DLK1 HM1-mGFP on HEK293T cells (region 1 of human DLK1 long form replaced with mouse); test: direct flow cytometry, control antibody at 20ug/ml, cells 834 HEK293T DLK1HM1-mGFP; no ab 1,385.00; same antibody on HEK293T parental 4,432.00
[3] = target: human DLK1 short form (isoform 2, DLK1-MB) fused to mGFP, expressed on HEK293T cells (human) (UniProt P80370); test: direct flow cytometry, AF647-labelled control antibody at 20ug/ml, cells 832-HEK293T DLK1 Iso2-mGFP mass pop (short form); same antibody on HEK293T parental 21,331.00
[4] = target: human-mouse chimeric DLK1 HM7-mGFP on HEK293T cells (region 7 of human DLK1 long form replaced with mouse); test: direct flow cytometry, control antibody at 20ug/ml, cells 848 HEK293T DLK1 HM7-mGFP; no ab 1,583.50; same antibody on HEK293T parental 4,432.00
[5] = target: human-mouse chimeric DLK1 HM2-mGFP on HEK293T cells (region 2 of human DLK1 long form replaced with mouse); test: direct flow cytometry, control antibody at 20ug/ml, cells 835 HEK293T DLK1HM2-mGFP; no ab 1,251.00; same antibody on HEK293T parental 4,432.00
[6] = target: human DLK1 long form (isoform 1, DLK1-FL) fused to mGFP, overexpressed on HEK293T cells (human) (UniProt P80370); test: direct flow cytometry, AF647-labelled control antibody at 20ug/ml, cells HEK293T DLK1 mGFP G06 (long form); same antibody on HEK293T parental 21,331.00
Chain of human DLK1 long form (isoform 1, DLK1-FL) fused to mGFP, overexpressed on HEK293T cells (human) (P80370 24-383): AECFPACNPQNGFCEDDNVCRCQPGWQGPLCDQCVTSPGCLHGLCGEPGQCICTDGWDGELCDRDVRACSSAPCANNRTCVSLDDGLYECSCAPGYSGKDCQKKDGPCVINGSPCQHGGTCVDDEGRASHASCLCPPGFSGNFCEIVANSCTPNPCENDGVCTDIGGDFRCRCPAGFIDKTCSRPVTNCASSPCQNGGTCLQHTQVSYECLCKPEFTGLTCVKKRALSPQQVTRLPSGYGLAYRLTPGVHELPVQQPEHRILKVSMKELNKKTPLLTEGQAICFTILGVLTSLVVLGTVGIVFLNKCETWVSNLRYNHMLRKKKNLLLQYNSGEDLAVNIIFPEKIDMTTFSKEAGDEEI

[7] = target: human-mouse chimeric DLK1 HM3-mGFP on HEK293T cells (region 3 of human DLK1 long form replaced with mouse); test: direct flow cytometry, control antibody at 20ug/ml, cells 836 HEK293T DLK1HM3-mGFP; no ab 1,657.50; same antibody on HEK293T parental 4,432.00
[8] = target: human DLK1 long form (isoform 1, DLK1-FL) fused to mGFP, overexpressed on HEK293T cells (human) (UniProt P80370); test: direct flow cytometry, control antibody at 20ug/ml, cells HEK293T DLK1 mGFP G06 (long form); no ab 1,649.00; same antibody on HEK293T parental 4,432.00
[9] = target: human-mouse chimeric DLK1 HM5-mGFP on HEK293T cells (region 5 of human DLK1 long form replaced with mouse); test: direct flow cytometry, control antibody at 20ug/ml, cells 850 HEK293T DLK1 HM5-mGFP; no ab 1,807.00; same antibody on HEK293T parental 4,432.00
Chain of human-mouse chimeric DLK1 HM5-mGFP on HEK293T cells (region 5 of human DLK1 long form replaced with mouse) (chain, as listed by the source mutant limits assumed, form in doubt): as the sequence (P80370 24-383) above, with F4D, A6P, N8D, N11Y, D16A, Q23H, P24V, Q27E counted along it

[10] = target: human-mouse chimeric DLK1 HM8-mGFP on HEK293T cells (region 8 of human DLK1 long form replaced with mouse); test: direct flow cytometry, control antibody at 20ug/ml, cells 849 HEK293T DLK1 HM8-mGFP; no ab 1,653.50; same antibody on HEK293T parental 4,432.00
Chain of human-mouse chimeric DLK1 HM8-mGFP on HEK293T cells (region 8 of human DLK1 long form replaced with mouse) (chain, as listed by the source mutant limits assumed, form in doubt): as the sequence (P80370 24-383) above, with A93T, Y96F, K103H, D105A, T120A, R127Q counted along it

[11] = target: human-mouse chimeric DLK1 HM4-mGFP on HEK293T cells (region 4 of human DLK1 long form replaced with mouse); test: direct flow cytometry, control antibody at 20ug/ml, cells 837 HEK293T DLK1HM4-mGFP; no ab 1,516.00; same antibody on HEK293T parental 4,432.00
[12] = target: human-mouse chimeric DLK1 HM6-mGFP on HEK293T cells (region 6 of human DLK1 long form replaced with mouse); test: direct flow cytometry, control antibody at 20ug/ml, cells 851 HEK293T DLK1 HM6-mGFP; no ab 1,992.00; same antibody on HEK293T parental 4,432.00
[13] = target: human DLK1 long form (isoform 1, DLK1-FL) fused to mGFP, overexpressed on HEK293T cells (human) (UniProt P80370); test: indirect flow cytometry, 1° control antibody at 4ug/ml detected with an AF-647 secondary antibody, cells HEK293T DLK1 mGFP G06 (long form); same antibody on HEK293T parental 3,130.00
[14] = target: human DLK1 endogenously expressed on COR-L279 small cell lung carcinoma cells (human) (UniProt P80370); test: flow cytometry, (His)6-tagged scFv detected with AF647-anti-His tag 2° Ab, CORL279 (DLK1+) cells; same scFv on M202 (DLK1-) 8,072.00; 2° Ab only on CORL279 63,034.00; no ab 4,394.00
[15] = target: human DLK1 endogenously expressed on COR-L279 small cell lung carcinoma cells (human) (UniProt P80370); test: flow cytometry, (His)6-tagged scFv detected with AF647-anti-His tag 2° Ab, CORL279 (DLK1+) cells; same scFv on M202 (DLK1-) 11,680.00; 2° Ab only on CORL279 63,034.00; no ab 4,394.00
[16] = target: human DLK1 short form (isoform 2, DLK1-MB) fused to mGFP, expressed on HEK293T cells (human) (UniProt P80370); test: direct flow cytometry, AF647-labelled antibody at 20ug/ml, cells 832-HEK293T DLK1 Iso2-mGFP mass pop (short form); same antibody on HEK293T parental 17,562.00; hIgG1-AF647 on the same cells 29,714.00
[17] = target: human DLK1 short form (isoform 2, DLK1-MB) fused to mGFP, expressed on HEK293T cells (human) (UniProt P80370); test: indirect flow cytometry, 1° antibody at 4ug/ml detected with an AF-647 secondary antibody, cells 832-HEK293T DLK1 Iso2-mGFP mass pop (short form); same antibody on HEK293T parental 2,827.00; hIgG1 on the same cells 2,895.00
[18] = target: human DLK1 long form (isoform 1, DLK1-FL) fused to mGFP, overexpressed on HEK293T cells (human) (UniProt P80370); test: indirect flow cytometry, 1° antibody at 4ug/ml detected with an AF-647 secondary antibody, cells HEK293T DLK1 mGFP G06 (long form); same antibody on HEK293T parental 2,827.00
[19] = target: human DLK1 long form (isoform 1, DLK1-FL) fused to mGFP, overexpressed on HEK293T cells (human) (UniProt P80370); test: direct flow cytometry, AF647-labelled antibody at 20ug/ml, cells HEK293T DLK1 mGFP G06 (long form); same antibody on HEK293T parental 17,562.00
[20] = target: DLK1 ECD-mFc long form (human DLK1-FL, isoform 1) (human) (UniProt P80370); test: ELISA, plate coated with DLK1 ECD-mFc long form, anti-human IgG Fc-HRP detection
Chain of DLK1 ECD-mFc long form (human DLK1-FL, isoform 1) (human) (P80370 24-303): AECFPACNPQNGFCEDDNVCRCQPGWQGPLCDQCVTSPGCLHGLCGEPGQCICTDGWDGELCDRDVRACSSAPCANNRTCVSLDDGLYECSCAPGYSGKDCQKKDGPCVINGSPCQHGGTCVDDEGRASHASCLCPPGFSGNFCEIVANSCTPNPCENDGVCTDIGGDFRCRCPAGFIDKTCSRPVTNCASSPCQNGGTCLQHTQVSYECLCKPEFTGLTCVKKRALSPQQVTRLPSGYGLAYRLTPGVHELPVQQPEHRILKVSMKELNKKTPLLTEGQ

[21] = target: DLK1 ECD-mFc long form (human DLK1-FL, isoform 1) (human) (UniProt P80370); test: ELISA, plate coated with long form of DLK1 ECD-mFc (isoform 1), anti-human IgG Fc-HRP, OD450nm
[22] = target: human DLK1 endogenously expressed on COR-L279 small cell lung carcinoma cells (human) (UniProt P80370); test: flow cytometry, (His)6-tagged scFv detected with AF647-anti-His tag 2° Ab, CORL279 (DLK1+) cells; same scFv on M202 (DLK1-) 9,460.00; 2° Ab only on CORL279 63,034.00; no ab 4,394.00
[23] = target: human DLK1 endogenously expressed on COR-L279 small cell lung carcinoma cells (human) (UniProt P80370); test: flow cytometry, ADC at 20µg/ml, row CORL-279 (SCLC, DLK+); row M202 of the same block: 4,385.0

Chain of human DLK1 short form (isoform 2, DLK1-MB) fused to mGFP, expressed on HEK293T cells (human) (P80370 other isoform, or with tags, fused parts or gaps): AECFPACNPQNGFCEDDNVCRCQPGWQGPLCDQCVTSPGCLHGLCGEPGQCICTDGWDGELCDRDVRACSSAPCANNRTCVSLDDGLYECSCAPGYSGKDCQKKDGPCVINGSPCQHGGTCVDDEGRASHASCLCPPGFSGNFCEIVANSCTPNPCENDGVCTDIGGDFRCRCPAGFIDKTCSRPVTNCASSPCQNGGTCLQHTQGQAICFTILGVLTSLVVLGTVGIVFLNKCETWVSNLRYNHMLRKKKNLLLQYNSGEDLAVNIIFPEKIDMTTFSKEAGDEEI

Molecule: non-targeting human IgG1 negative control antibody
- FL4H/AF-647 signal [1]: 2900
- FL4H/AF-647 signal [2]: 8760
- FL4H/AF-647 signal [3]: 29700
- FL4H/AF-647 signal [4]: 5270
- FL4H/AF-647 signal [5]: 8510
- FL4H/AF-647 signal [6]: 47900
- FL4H/AF-647 signal [7]: 8770
- FL4H/AF-647 signal [8]: 9870
- FL4H/AF-647 signal [9]: 7660
- FL4H/AF-647 signal [10]: 4360
- FL4H/AF-647 signal [11]: 8480
- FL4H/AF-647 signal [12]: 6460
- FL4H/AF-647 signal [13]: 4120

B1: 04-0562-h10scfv, single chain Fv of 04-0562-h10 DLK1 antibody, with C-terminal (His)6 tag (scFv)
scFv: DIVMTQSPLSLPVTPGEPASISCRSSQSLVHINGNTYLHWYLQKPGQSPQLLIYKVSNRFSGVPDRFSGSGSGTDFTLKISRVEAEDVGVYYCSQTTHVPWTFGQGTKLEIKGGGGSGGGGSGGGGSQVQLQESGPGLVKPSETLSLTCTVSGFSLTSYGVSWVRQPPGKGLEWIGVIWGDGSTSYNPSLKSRVTISKDTSKNQVSLKLSSVTAADTAVYYCAKPDGPLGQGTLVTVSSHHHHHH
- average AF-647 fluorescence (FL4-H) [14]: 622000

B2: 04-0561-F1scfv, single chain Fv of 04-0561-F1 DLK1 antibody, with C-terminal (His)6 tag (scFv)
scFv: DIVMTQSPDSLAVSLGERVTMNCKSSQSLLQSSNQKNYLAWYQQKPGQPPKLLVYFASTRESGVPDRFSGSGSGTDFTLTISSVQAEDVAVYYCQQHYSIPLTFGQGTKLEIKGGGGSGGGGSGGGGSQVQLQESGPGLVKPSETLSLTCTVSGFSLSIYSVHWVRQPPGKGLEWIGLIWGGGSTDYNPSLKSRVTISKDTSKNQVSLKLSSVTAADTAVYYCARKEGNYLWFAYWGQGTLVTVSSHHHHHH
- average AF-647 fluorescence (FL4-H) [15]: 1.43e+06

B3: LegoChem 18A5 benchmark anti-DLK1 antibody (antibody, from another filing, V domains shown)
VH: QVQLVQSGGAVVQPGHSLRLSCEASGFKFKDYGMHWVRQAPGKGLEWLAVISHDGRNKNYADSVKGRLTISRDNSKNTLSFQMNSLRAEDTAVYYCVRDWSYAFDIWGQGTLVTVSS
VL: DIQMTQSPSFLSASVGDRVNITCRASQDISRRLAWYQQKPGKAPKLLIYGAASLQSAVASRFSGSGSGTEFTLTISSLQPEDFANYYCQQIYTTPLTFGGGTKVEIK
- FL4H/AF-647 signal [16]: 43500
- FL4H/AF-647 signal [17]: 3350
- FL4H/AF-647 signal [18]: 20400
- FL4H/AF-647 signal [19]: 153000
- EC50 [20]: 17.9 nM
- EC50 [21]: 17.9 nM

B4: 04-0547-h2scfv, single chain Fv of 04-0547-h2 DLK1 antibody, with C-terminal (His)6 tag (scFv)
scFv: DIQMTQSPSSLSASVGDRVTITCRASHDVSTAVAWYQQKPGKAPKLLIYSASYRYTGVPSRFSGSGSGTDFTLTISSLQPEDFATYYCQQHYRIPLTFGQGTKLEIKGGGGSGGGGSGGGGSEVQLVESGGGLVQPGGSLRLSCAASGFSISDYYMAWVRQAPGKGLEWVANINYDGTNTYYADSVKGRFTISRDNSKNTLYLQMNSLRAEDTAVYYCVRSYYYYGMEYWGQGTTVTVSSHHHHHH
- average AF-647 fluorescence (FL4-H) [22]: 763000

B5: 04-0547-h2-MMAE-AF647 (04-0547-h2 antibody conjugated to both MMAE and Alexa Fluor 647) (antibody, IgG1, V domains shown)
VH: EVQLVESGGGLVQPGGSLRLSCAASGFSISDYYMAWVRQAPGKGLEWVANINYDGTNTYYADSVKGRFTISRDNSKNTLYLQMNSLRAEDTAVYYCVRSYYYYGMEYWGQGTTVTVSS
VL: DIQMTQSPSSLSASVGDRVTITCRASHDVSTAVAWYQQKPGKAPKLLIYSASYRYTGVPSRFSGSGSGTDFTLTISSLQPEDFATYYCQQHYRIPLTFGQGTKLEIK
modifications: MC-VC-PAB-MMAE on free thiols of cysteines (see heavy chain); MC-VC-PAB-MMAE on free thiols of cysteines (about 90% at reduced interchain disulfides, average 4 MMAE per antibody); Alexa Fluor 647 label
- ADC Binding Activity by Flow Cytometry (20µg/ml) [23]: 225000
